The results in this text go back to US20180036445A1.

In assay [1] the target is Fab/Mab (sample loaded in Example 3). In words: 10% breakthrough dynamic binding capacity, ligand on agarose column, residence time 6 min, no SIP.
For assay [2] the target is unchanged. The assay can be described thus: difference of dynamic binding capacity, after SIP minus control without SIP.
For assay [3] the target is unchanged. In words: 10% breakthrough dynamic binding capacity, ligand on agarose column, after 24 h in 0.1 M peracetic acid.
Assay [4] shares this target. In words: difference of dynamic binding capacity, after SIP minus control without SIP, MabSelect.
Assay [5] shares this target. In words: difference of dynamic binding capacity, after SIP minus control without SIP, MabSelect Xtra.
Assay [6] shares this target. The assay can be described thus: 10% breakthrough dynamic binding capacity, MabSelect column, residence time 6 min, no SIP.
Assay [7] has the same target. In words: 10% breakthrough dynamic binding capacity, MabSelect column, after 24 h in 0.1 M peracetic acid.
The target is the same in assay [8]. In words: 10% breakthrough dynamic binding capacity, MabSelect Xtra column, residence time 6 min, no SIP.
Assay [9] shares this target. In words: 10% breakthrough dynamic binding capacity, MabSelect Xtra column, after 24 h in 0.1 M peracetic acid.
The target in assay [10] is Fab (sample of Example 4). In words: static binding capacity in filter plate, after 24 h in 500 mM peracetic acid, 10 min incubation with Fab, relative to PBS control.
Assay [11] deals with Fab (sample of Example 4). In words: static binding capacity in filter plate, after 24 h in 100 mM peracetic acid, 10 min incubation with Fab, relative to PBS control.
Assay [12] concerns the target Fab (sample of Example 4). The assay can be described thus: static binding capacity in filter plate, after 4 h in 100 mM peracetic acid, 90 min incubation with Fab, relative to PBS control.
In assay [13] the target is Fab (sample of Example 4). In words: static binding capacity in filter plate, after 4 h in 5% H2O2, 90 min incubation with Fab, relative to PBS control.
Assay [14] addresses Fab (sample of Example 4). In words: static binding capacity in filter plate, after 4 h in 100 mM peracetic acid, 10 min incubation with Fab, relative to PBS control.
Assay [15] deals with Fab (sample of Example 4). In words: static binding capacity in filter plate, after 4 h in 500 mM peracetic acid, 90 min incubation with Fab, relative to PBS control.
The target of assay [16] is Fab (sample of Example 4). In words: static binding capacity in filter plate, after 24 h in 5% H2O2, 10 min incubation with Fab, relative to PBS control.
Assay [17] has as its target Fab (sample of Example 4). In words: static binding capacity in filter plate, after 24 h in 500 mM peracetic acid, 90 min incubation with Fab, relative to PBS control.
Assay [18] has as its target Fab/Mab (sample loaded in Example 3). The assay can be described thus: 10% breakthrough dynamic binding capacity, ligand on agarose column, after 24 h in 0.1 M peracetic acid (ligand degraded by the treatment).

Chain of recombinant Protein L (rPrL) (chain): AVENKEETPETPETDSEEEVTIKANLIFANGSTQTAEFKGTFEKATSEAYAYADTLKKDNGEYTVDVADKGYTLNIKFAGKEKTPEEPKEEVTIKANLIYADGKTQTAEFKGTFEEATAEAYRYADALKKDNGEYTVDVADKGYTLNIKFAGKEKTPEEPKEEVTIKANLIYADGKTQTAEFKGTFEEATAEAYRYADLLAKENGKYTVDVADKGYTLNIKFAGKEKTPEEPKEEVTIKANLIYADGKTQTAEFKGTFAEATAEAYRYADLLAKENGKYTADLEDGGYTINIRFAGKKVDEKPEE

In turn, “MabSelect SuRe LX ligand (multimer of Protein Z variant with substituted asparagines) (designed binder)” came in with a DBC control, no SIP in assay [1] of 63 g/L. In addition, the ΔDBC in assay [2] came out at 0 g/L. The substance also returned a DBC after SIP in assay [3] of 63 g/L.

“MabSelect SuRe ligand (multimer of Protein Z variant with substituted asparagines) (designed binder)”: the DBC control, no SIP in assay [1] turned out to be 50 g/L. In [2], the ΔDBC was 1 g/L. This substance also yielded a DBC after SIP in assay [3] of 51 g/L.

As for “recombinant Protein A (rPrA) (from UniProt P38507 42-327)”, the results for the ΔDBC in [4] and in assay [5] were -1 g/L and 1 g/L, respectively. The DBC control, no SIP amounted to 52 g/L in assay [6] and 59 g/L in [8]. The DBC after SIP stood at 51 g/L in assay [7] and 60 g/L in [9].

Take recombinant Protein L (rPrL): the Relative remaining SBC (%) in assay [10] worked out at 97%; in assay [11], 107%; in [12], 101%; in assay [13], 102%; in assay [14] it was 109%; in [15], 103%. For the same substance, the Relative remaining SBC (%) in assay [16] and in [17] was 102% in each case. For the same substance, the DBC control, no SIP in assay [1] worked out at 30 g/L. Also, the ΔDBC in [2] was -1 g/L. Moreover, the DBC after SIP in [3] was determined as 29 g/L.

Consider “single-chain camelid antibody against IgG kappa chains (KappaSelect ligand) (VHH)”, for which, in assay [1], the DBC control, no SIP was 20 g/L. For the same substance, the ΔDBC in assay [2] is -20 g/L. The substance also gave a DBC after SIP in [18] of 0 g/L.
